# Results: the DeepSol protein solubility set
# Assay: soluble on expression in E. coli; label from the status in PepcDB or PDB records
row,Sequence,soluble on expression in E. coli
1,MKFDVIIIGGSYAGLSAALQLGRARKNILLVDAGERRNRFASHSHGFLGQDGKAPGEIIAEARRQIERYPTIHWVEGRVTDAKGSFGEFIVEIDGGRRETAGRLILAMGVTDELPEIAGLRERWGSAVFHCPYCHGYELDQGKIGVIAASPMAIHHALMLPDWGETTFFTNGIVEPDADQHALLAARGVRVETTRIREIAGHADVVLADGRSIALAGLFTQPKLRITVDWIEKLGCAVEEGPMGSTIVTDPMKQTTARGIFACGDVARPAGSVALAVGDGAMAGAAAHRSILFPEMR,soluble
2,MKFFDREREINEILHILNREPDDIYFIYGPLNSGKTALIKHIIENKLSDDYKVFYINFRTYLISEKREFIEAIFTTKKDDFFEKIKDKDEVLNLITKGVRILTGIPIPEVEFDKLFEEKINDAFQYLNSLLLEVKKSGKKPILIFDELQMIKDVVLNTENQRFSAFPSLRFGNGQKYLLKELFQFLVSLTKEQHLCHVFCLSSDSLFIEYVYSTGELEGRAKYLLVDDFDKETALKFMDFLAVENNINLTNEDKELIYSYVGGKPKDIKYVVEESKFKDLREILEFMLKDAVQKLDMFLDMLNYSKPKVDVGDEVIEIKKDNVIEALKLFKDEYEVSKKHIPVPVYTYLIKRNILFLNPIEGILKPQSYLVWNAIKRLL,not soluble
3,MKFKKLLSRIIIATMITFTGTLSYQAIEQTHISHAAHNYYGKKQCTWWAFKRRAQLGKPVSNRWGNAKNWYSNARRSGYATGHKPRKYAVMQSTRGYYGHVAVVEKVYKNGKIKISEYNYNVPLGYGTRIISKSSARNYNYIYLEHHHHHH,not soluble
4,MKFKYGATLFSGFLGLSAILAACGAKGKFDQVDDGKIVLASSLTSKNAANALQAVVEKYNQVKGGNDYPIEITQITGGYDGGRGNLQTKLSVKDKTTFYNLI,soluble
5,MKFLHTADWHIGKKLHGFDLLAEQREAFEQILAIAKEEQVDAVVIAGDLYDRSVPAVEAVEIFNEMMIQMNLKEHFPVLAISGNHDSSTRLETGGPWFNQTQFHLNTRLEQAFQPIEIDNTQFYLLPYFEPIAARLYFEDETIRTIQAAMEKVVAKMQESFLPNKKQVLVSHFFVAGSEKTDSETKLTVGGLDVVPTALLEPFDYVALGHLHGKNALQAPNARYSGSPVKFSLSEMTQEKGVWLVETEAEVHFQFRALKPLRDIQQLTGSFQQLTDPAFYQEVNRENYLHVQLTDRAIIPNMMNQLRKIYPKIIGLERLNGRETSSGNQKKVVQIEQRSPEEHLHDFFNDVTGEALTEQQAQWVQEELSTLNQLERGK,not soluble
6,MKFLILSVSAGGGHIHAAFALKKYIAKYLEGSQVKMLDTIKYLNPFLDKVLIGGYLKTLKVSPALFGKLYNFTEKDDNLASLSNKINEFMAYKLIPIIEDFNPDVIICTHPFPTEMVSILKSKESLKTPMLCILTDYAPHSFWIRPQVNSYVVSNSDMVDEMVRRGVNRENIYDLGIPVDPDFIRNFDKIETLNELNLSLNKKTILIMGGSLGIGKIEDIYEALSKSRANIQIIIITGNNKKLYSKLLELAEDSYVETRILGYTRDVNRYMQASDLLLTKPGGLTITEALICRVPLAVFSPIPGQEEKNEDFLLKHNLAISIRDSENCLGIIESLISNPELLQAMKDNCNKFSKPSSGKDICNLLINLINKNQKIDVNNADYRN,not soluble
7,MKFLNQHELTKLLALLDLDHGLDWDYFLLLIAKTGLRFGEALGVTPMDFDMAKLTLTINKTWDYKSATGSFAETKNTASVRKVPLDWQVAMQFAAQIKSLPQDKPIFVTDGQRVYNETANDILERKCKRASIPVISIHGLRHTHASLLLYAGVSVGSVARRLGHANMSTTQKTYLHILEHHHHHH,soluble
8,MKFVAVIRQVPDGESKLRIQGDRVDLSGATMILDQMDEYAVEEAIRLKERHGGEAVVVGFGPERTEEAIRTALAMGMDRGVHVVYEGFADPVAVAEALVEVLKEEAPTLVLTGGQQADWDSQALGGALTEALGVPVVAWTTALELEGDTAKAKHDLDEGAEWVRVRLPAVFTTQQGLNEPRYPTLPGIMKAKKKEIRKVQASLTPKVTLISEEIQEKSRLGKILDGKDPVAAAEELVRLLHEEAKVI,soluble
9,MKFYTILSILFISFMLSACAVLQKSSPLQENKDFYILDTHTQKKISFEDMILELLKADVILLGEKHDEVKHKISQVMIFNALEGNLSSQNINFDVALEMLASTEQNHLDKAFKNKKTIKANELTNALNWDKVWKWKDYEQFVNVVFYSKSKILGANLSRSEITSIYNGAQPLKGYVSTTNEVKKQLFDIISLSHKLNPEENKELLDKLVEIQQFKDRRMADVLVHHVNKVLLLAGSYHTSKKIGIPLHIQDFKSSKKIVVVNLSYGEIDLKDSDYVLIYKGEE,not soluble
10,MKGFYHHPSRTISLRNNLSERQLRSTLAHELGHAMRGDVPTSGVFAEHIERRADEFAARLLISPIEYRLAESLHDGHIGAIAYELGVTVRLVEVWRDMHDRITA,not soluble
11,MKGILGFEYGIVQAPLGPDISGPELVAAVANAGGIGLLRCPDWECPDYLRELIRKTKTLTEKPFGIGVVLAFPHDLNIKTILEEKVAVLQLYWGDCSQELVDDAHFAGVKVIPQVGNVEEARKAVAVGVDAIIVQGREAGGHVIGKDGLFSLLPRVVDLVGERDIPVIAAGGIVDGRGYVAALSLGAQGVCLGTRFVATHESYAHPIYKRKLIEYEKTEYTDVFGRARWPGAPQRVLETPFFDDWRSLPAHENEVNQPIIGRSTIHGVEKEIRRFSGTVPNMTTTGDLESMAMYAGQSVGLIKEILPAGEVVKSLVEEAQALILQKFNNATTT,not soluble
12,MKGKITLFFTALCFGLTGCIAPPKGLEKERFSINSYREISPQDLTCHCKTVRLGGKIVNTTVLANQTKIEVLSLPVSSISAKPFVELQSDGRFIVYFNGFVEPENLKERYITVGGQLAGTEKGKIEQADYTYPVVQADKYRIWTLSTTYDYPTDDWDEDDDWGFFRWRHRLWYVQPEIHYYLN,not soluble
13,MKGLCSSDTRQYLPGHQLWEAPVQIRRYSAVIHHATKCQWGVIPSRTINVSLHQTRRMRVAAVGIGGAGGRIVERLWQDNERRETTYLGAACAVDTDTEALDELDALPADRRYAFGLSETNGTGTNGDRTSGTAAIEDERLEVRRAIDELVTSDIDAVVLVAGLAGGTGSGATAHIADALREVYSIPVYCLSVLPAGRDDDAAANTMQALRALESTVDGQILFDNEAWLGSGQTVESASETLNETIVARLGALFAAGEATAPDAVGQSVVDASEIINTLSDAGFTTLGYASQDLQTGAGSGDGTVIDQLKNRFLGDNADDVDEIEAYNAVETTLRRAVRGKLTAQCELDSADRALAVFAGPPAWLIRDAVTDGRRWLTEELQSPEVRSGLEHHHHHH,not soluble
14,MKGQVVSLHLGLGSGLPKPRVEALELVAGFGAKGDRHAGKDPDRAVLVAGLSAYEKAQGAGIPLPYGALGENLLLDLDPHALPPGARLRVGEALLELSQVCPVCKSLSQFDLRLPKLLYGGRGVYARVLEGGVVRVGDPVLVLAPAR,soluble
15,MKGRRPPASPTAAASAQLELPLLAPPAAPDAAPPSADPAQPDPAAPLGPDQRRLALGERTLVYHLKRSSRRTIGFVVDDRGLSITAPRWVTLAEIEHAIAEKQKWIFAKLAEWHTSAARRVLPPMRWEDGATLPFLGKPVMLKLESPIGALVFDADMRTLHLGLPPTATGQQIKDRVQGWLQTQARRLFGERLDVYAERLGVRHSAYALSSAATRWGSCTADGKIRLNWRLVHFPLSLIDYVVAHELAHLKEMNHSPRFWDTVESIFPEFREAREQLRSHPPEYLPVFLEHHHHHH,not soluble
16,MKHITIIGAGLAGTLCGLYLARRGYEVELFESRPDIRNSPTDYGRSINLALSCRGITALKAMNLLSEVNKIMVPMRARAIHEANGEVHYQPFGRYIDEYINAISRSDLNALLLNKAELCPNIKLHFNMKLHSLDIHNKKIKFENKNGDFVEASYHRLIGADGAPSHVRDMLKNEGIVSASRDFLSHGYKELSISKKHTKGMAREHLHLWPRDSFMLLGNPNPDDSITGSLFLANEGKDSFAELNNEEKLHLFFKTQFPDAYAAMPNLVQEFFGNPTGHLSTIQCSPWYYKDECLLIGDAAHGIIPFFGQGMNSAFEDCRILDELLDEYQDDWSRVNPLFYEQRKVNTDAIAKMSMDNYHEIHSDIRNPKFILQKQIERELMLRYPEHYVSMHVLVMFTNTPYAKAMAIGELQSGLLEQICFPITDIKELNWQEVEKLLGIYDKKLAKIILEHHHHHH,soluble
17,MKHMLIAGGGIGGLSAAISLRKAGFSVTLCEAASENRKTGAGILQPQNALAVLKELGVFEDCCKHGFQTEWFKTFDEQGNLLFQVSESFLDDSLPGRNNILRKTLNDILMKHAEAVGVDIKWGKKVVAYEETAESVTALCEDGEKMQADILAGFDGIHSVVRDKMLQKETEKEHLGMGAWRFYIELPDYTFEDATFMYRSGDTQIGVVPLAQHAGYVFVLQPCTSDYWDEEDTRFDRVKEILSGFRGLDFVTKHMSKQHPVIFNKLEQVAVQEPWHKGRVIIGGDAAHAGAPTLAQGAAMAIEDAIVLAEELQNHADHETALQAYYKRRAPRALKVQNLSSEIVRRRLKGEPGAEELIGECYAVLREGYLEHHHHHH,not soluble
18,MKHTEESLMSTTEKSRKAEEDDEKDMKKRTQFPSSSTSSDPPVGIGGSGALVVNRRRQEGNPVLKYVRNVRYEWGDIGPDFECGPTFGVVYLSFKYHKQHPEYVYTRINGNAENRYRNKVLLGYCNMEEPRHVLRELNMICFREAWTFVVVYTVEEAAEYIELFKTTQKKEITIKKKAIDDGGDSSMSDERRRNREAAIGFLTAARSITKTDADRLLFHFGTLQAISTASETSISACPGVGPIKAKNLHSFLHAIISPNEQD,not soluble
19,MKIAIIGATGHAGSAIFKEALKRGHEVTGYVRHPDKSVGILPPDADLIQQDAFTLTREQLTGYDAVIDAFATTVEQAYLHIDLADHLIHELRNTDKPRVIFILGAGSLKNGDQTLYDTLKKDPHAAAFINTPLNQFRELQLLRWTDNVNWLGISPSANFQPGPATAYVRGKDELLKDDSGKSVLNSDTLAVALLDELENPTIKQARFTARNALEHHHHHH,soluble
20,MKICLIDETGAGDGALSVLAARWGLEHDEDNLMALVLTPEHLELRKRDEPKLGGIFVDFVGGAMAHRRKFGGGRGEAVAKAVGIKGDYLPDVVDATAGLGRDAFVLASVGCRVRMLERNPVVAALLDDGLARGYADAEIGGWLQERLQLIHASSLTALTDITPRPQVVYLDPMFPHKQKSALVKKEMRVFQSLVGPDLDADGLLEPARLLATKRVVVKRPDYAPPLANVATPNAVVTKGHRFDIYAGTPV,not soluble
21,MKIEKINENKIKVTISIDDLLERNIDLDTLNYNTPAAQELFWDMMEQAEIQFGFDASDSQICVEAIPDPEEGFVIIITKLDEDGEFESIHKYIKNRFRKSDLRVRKRNSRVSSSIVIYFFNNFEDLCSVCQKLRDIYSGESTLYRLKGVYYLVLTKNSWSVANLRSFEPILSEFGTKVSNVSFYEGYLNEHGEKIIEYNAVETINDYFHR,soluble
22,MKIGIFTDCYYPQINGVVTSTMNLQKELEKLNHEVYIITTTFPNFKDEDEKHIIRIPSIPFFKWSEFRIGLFLKHTKAYNKVKALNFDIVHTQTEFSMGNFGTFIAKDLNIPCIHTYHTVYEEYTHYISNFGKSPLKKVVRKLSKRYIAHFSGVIAPTEKTRDLLISYGVKNKIYVVPTGINLEKFKKDIPDAETNSLLKSFNIKKDSFKLIFLGRISKEKNIETLINIMPKIVSENNNIQLIIVGDGPDRLELEERVRYLDLQDNVIFTNRIPNDKVPIYYKAADLFISPSKTETQGLTILEAMAAGVPVLVYDDTNIKGLVLHKKTGLLFKENDELLDNIKFALNNKEEIQSYAKEAFKIAEDFSSANFAKKVERIYKELINQ,not soluble
